What was measured:
HLA-A2 (human) [1] = experiment: T2 bioassay (peptide 50 µg/ml + b2m 3 µg/ml, overnight), flow cytometry, stained with anti-HLA-A2 MAb
HLA-A2 (human) [2] = experiment: T2 bioassay (peptide 50 µg/ml + b2m 3 µg/ml, overnight), flow cytometry, stained with pan class I MAb W6/32
[3] = target: ras p21 proteins of the Calu-1 lung carcinoma cell line (K-ras Cys12 mutation) (human) (UniProt P01116); experiment: cell-based or functional assay
HLA-A2 (human) [4] = experiment: T2 bioassay, isotype-matched control MAb staining of T2 cells incubated with ras5-17(D12)
[5] = target: ras p21 proteins of the SW480 colon carcinoma cell line (K-ras Val12 mutation) (human) (UniProt P01116); experiment: flow cytometry, fixed permeabilised SW480 cells, isotype-matched control UPC-10
[6] = target: ras p21 proteins of the HT-29 colon carcinoma cell line (no known ras codon 12 point mutation) (human) (UniProt P01116); experiment: flow cytometry, fixed permeabilised HT29 cells, isotype-matched control UPC-10
HLA-A2 (human) [7] = experiment: T2 bioassay, isotype-matched control MAb staining of T2 cells incubated with ras5-14(G12)
HLA-A2 (human) [8] = experiment: T2 bioassay, isotype-matched control MAb staining of T2 cells incubated with ras5-13(V12)
HLA-A2 (human) [9] = experiment: T2 bioassay, isotype-matched control MAb staining of T2 cells incubated with ras5-12(V12)
HLA-A2 (human) [10] = experiment: T2 bioassay, isotype-matched control MAb staining of T2 cells incubated with ras5-14(V12)
[11] = target: ras p21 proteins of the Calu-1 lung carcinoma cell line (K-ras Cys12 mutation) (human) (UniProt P01116); experiment: flow cytometry, fixed permeabilised Calu-1 cells, isotype-matched control UPC-10
HLA-A2 (human) [12] = experiment: T2 bioassay, isotype-matched control MAb staining of T2 cells incubated with ras5-14(D12)
HLA-A2 (human) [13] = experiment: T2 bioassay, no peptide, flow cytometry, isotype-matched control MAb staining of T2 cells
HLA-A2 (human) [14] = experiment: T2 bioassay, isotype-matched control MAb staining of T2 cells incubated with ras8-16(V12)
HLA-A2 (human) [15] = experiment: T2 bioassay, isotype-matched control MAb staining of T2 cells incubated with ras5-14(C12)
HLA-A2 (human) [16] = experiment: T2 bioassay, isotype-matched control MAb staining of T2 cells incubated with CEA571-579
[17] = target: MHC class I (HLA class I) molecules; experiment: flow cytometry, HT29 cells, W6/32
[18] = target: MHC class I (HLA class I) molecules; experiment: T2 bioassay, no peptide (b2m 3 µg/ml only), flow cytometry, staining of T2 cells with pan class I MAb W6/32; baseline
[19] = target: MHC class I (HLA class I) molecules; experiment: flow cytometry, Calu-1 cells, W6/32
[20] = target: MHC class I (HLA class I) molecules; experiment: flow cytometry, SW480 cells, W6/32
[21] = target: ras p21 proteins of the HT-29 colon carcinoma cell line (no known ras codon 12 point mutation) (human) (UniProt P01116); experiment: flow cytometry, fixed permeabilised HT29 cells, RAS 10 at 10 µg/ml
[22] = target: ras p21 proteins of the Calu-1 lung carcinoma cell line (K-ras Cys12 mutation) (human) (UniProt P01116); experiment: flow cytometry, fixed permeabilised Calu-1 cells, RAS 10 at 3 µg/ml
[23] = target: ras p21 proteins of the SW480 colon carcinoma cell line (K-ras Val12 mutation) (human) (UniProt P01116); experiment: flow cytometry, fixed permeabilised SW480 cells, RAS 10 at 10 µg/ml
[24] = target: ras p21 proteins of the Calu-1 lung carcinoma cell line (K-ras Cys12 mutation) (human) (UniProt P01116); experiment: flow cytometry, fixed permeabilised Calu-1 cells, RAS 10 at 1 µg/ml
[25] = target: ras p21 proteins of the Calu-1 lung carcinoma cell line (K-ras Cys12 mutation) (human) (UniProt P01116); experiment: flow cytometry, fixed permeabilised Calu-1 cells, RAS 10 at 10 µg/ml
[26] = target: ras p21 proteins of the HT-29 colon carcinoma cell line (no known ras codon 12 point mutation) (human) (UniProt P01116); experiment: flow cytometry, fixed permeabilised HT29 cells, RAS 10 at 3 µg/ml
[27] = target: ras p21 proteins of the SW480 colon carcinoma cell line (K-ras Val12 mutation) (human) (UniProt P01116); experiment: flow cytometry, fixed permeabilised SW480 cells, RAS 10 at 3 µg/ml
[28] = target: ras p21 proteins of the HT-29 colon carcinoma cell line (no known ras codon 12 point mutation) (human) (UniProt P01116); experiment: flow cytometry, fixed permeabilised HT29 cells, RAS 10 at 1 µg/ml
[29] = target: ras p21 proteins of the SW480 colon carcinoma cell line (K-ras Val12 mutation) (human) (UniProt P01116); experiment: flow cytometry, fixed permeabilised SW480 cells, RAS 10 at 1 µg/ml
[30] = target: ras p21 proteins of the Calu-1 lung carcinoma cell line (K-ras Cys12 mutation) (human) (UniProt P01116); experiment: sandwich ELISA, RAS 10 capture, Y13-238 detection, Calu-1 lysate 75 µg protein
[31] = target: ras p21 proteins of the HT-29 colon carcinoma cell line (no known ras codon 12 point mutation) (human) (UniProt P01116); experiment: sandwich ELISA, RAS 10 capture, Y13-238 detection, HT29 lysate 7.5 µg protein
[32] = target: ras p21 proteins of the SW480 colon carcinoma cell line (K-ras Val12 mutation) (human) (UniProt P01116); experiment: sandwich ELISA, RAS 10 capture, Y13-238 detection, SW480 lysate 7.5 µg protein
[33] = target: ras p21 proteins of the HT-29 colon carcinoma cell line (no known ras codon 12 point mutation) (human) (UniProt P01116); experiment: sandwich ELISA, RAS 10 capture, Y13-238 detection, HT29 lysate 75 µg protein
[34] = target: ras p21 proteins of the Calu-1 lung carcinoma cell line (K-ras Cys12 mutation) (human) (UniProt P01116); experiment: sandwich ELISA, RAS 10 capture, Y13-238 detection, Calu-1 lysate 7.5 µg protein
[35] = target: ras p21 proteins of the SW480 colon carcinoma cell line (K-ras Val12 mutation) (human) (UniProt P01116); experiment: sandwich ELISA, RAS 10 capture, Y13-238 detection, SW480 lysate 75 µg protein
[36] = target: ras p21 proteins of the Calu-1 lung carcinoma cell line (K-ras Cys12 mutation) (human) (UniProt P01116); experiment: sandwich ELISA, RAS 10 capture of Calu-1 lysate, rat anti-mouse B7.1 in place of the detection MAb
[37] = target: ras p21 proteins of the SW480 colon carcinoma cell line (K-ras Val12 mutation) (human) (UniProt P01116); experiment: sandwich ELISA, RAS 10 capture of SW480 lysate, rat anti-mouse B7.1 in place of the detection MAb
[38] = target: ras p21 proteins of the HT-29 colon carcinoma cell line (no known ras codon 12 point mutation) (human) (UniProt P01116); experiment: sandwich ELISA, RAS 10 capture of HT29 lysate, rat anti-mouse B7.1 in place of the detection MAb

## CEA571-579 peptide (from UniProt P06731 571-579)
HLA-A2 (human) [1]
  MFI: 680
HLA-A2 (human) [2]
  MFI: 991

## isotype-matched (IgG2a) MAb UPC-10
[3]
  Proliferation Response (3H-thymidine uptake, cpm) of the CD4+ T cell line of patient 43 to Calu-1 extract (250 µg protein) on wells coated with isotype-matched MAb UPC-10, with BLCL: 7320 cpm

## isotype-matched (IgG2a) MAb UPC-10 (antibody)
HLA-A2 (human) [4]
  MFI: 46.5
[5]
  Percent Positive Cells: 5.3%
[6]
  Percent Positive Cells: 11.6%
HLA-A2 (human) [7]
  MFI: 41.3
HLA-A2 (human) [8]
  MFI: 54.1
HLA-A2 (human) [9]
  MFI: 44.2
HLA-A2 (human) [10]
  MFI: 38.1
[11]
  Percent Positive Cells: 1%
HLA-A2 (human) [12]
  MFI: 50.8
HLA-A2 (human) [13]
  MFI: 84
HLA-A2 (human) [14]
  MFI: 39.6
HLA-A2 (human) [15]
  MFI: 61.4
HLA-A2 (human) [16]
  MFI: 48.4

## pan HLA class I MAb W6/32 (antibody)
[17]
  MFI: 1310
  Percent Positive Cells: 93.5%
[18]
  MFI: 230
[19]
  MFI: 1620
  Percent Positive Cells: 93.4%
[20]
  MFI: 1180
  Percent Positive Cells: 84.2%

## pan-ras MAb, clone RAS 10
[3]
  Proliferation Response (3H-thymidine uptake, cpm) of the CD4+ T cell line of patient 43 to Calu-1 extract (250 µg protein) on wells coated with RAS 10, with BLCL: 80500 cpm

## pan-ras MAb, clone RAS 10 (antibody)
[21]
  MFI: 423
  Percent Positive Cells: 93.1%
[22]
  MFI: 225
  Percent Positive Cells: 87.8%
[23]
  MFI: 631
  Percent Positive Cells: 83.4%
[24]
  MFI: 176
  Percent Positive Cells: 59.8%
[25]
  MFI: 332
  Percent Positive Cells: 90.6%
[26]
  MFI: 304
  Percent Positive Cells: 83.4%
[27]
  MFI: 386
  Percent Positive Cells: 82.8%
[28]
  MFI: 233
  Percent Positive Cells: 58.6%
[29]
  MFI: 273
  Percent Positive Cells: 67%

## ras MAb, clone Y13-238 (antibody)
[30]
  Immunoreactivity (A490): 1.5 A490
[31]
  Immunoreactivity (A490): 0.99 A490
[32]
  Immunoreactivity (A490): 1.5 A490
[33]
  Immunoreactivity (A490): 1.49 A490
[34]
  Immunoreactivity (A490): 1.29 A490
[35]
  Immunoreactivity (A490): 1.59 A490

## rat IgG2a anti-mouse B7.1 MAb (antibody)
[36]
  Immunoreactivity (A490): 0.299 A490
[37]
  Immunoreactivity (A490): 0.333 A490
[38]
  Immunoreactivity (A490): 0.283 A490
